According to US20160311878A1 (SAMSUNG ELECTRONICS, published 2016):

Molecular target: T1, full-length HDM2 (NP_002383.2) (human, UniProt Q00987-11 1-497, limits assumed)
T1 construct: it was coated on the ELISA plate at 20 ug/ml; also called full-length MDM2
Assay: ELISA; full-length HDM2 coated on plate, GST fusion at 0-5.5 uM, anti-GST-HRP detection (FIG. 4)
Protocol: The well was incubated overnight at 4° C. Thereafter, bindings between other proteins were blocked with 300 ul of 3% skim milk w/PBS-T (at room temperature for 3 hours).
One hour after, the plate was washed with 300 uL of PBS-T, and treated with 100 uL of HRP conjugated-anti-GST antibody (Abcam, 1:2000). After the reaction at room temperature for one hour, the plate was treated with TMB substrate (Pierce, 100 uL) and left for 5 minute until coloring reaction occur, and then, treated with stop solution (Pierce, 100 uL). Thereafter, absorbance at 450 nm was measured using microwell reader (Molecular Device, 340PC384).

T1 sequence (Q00987 other isoform, or with tags, fused parts or gaps limits assumed): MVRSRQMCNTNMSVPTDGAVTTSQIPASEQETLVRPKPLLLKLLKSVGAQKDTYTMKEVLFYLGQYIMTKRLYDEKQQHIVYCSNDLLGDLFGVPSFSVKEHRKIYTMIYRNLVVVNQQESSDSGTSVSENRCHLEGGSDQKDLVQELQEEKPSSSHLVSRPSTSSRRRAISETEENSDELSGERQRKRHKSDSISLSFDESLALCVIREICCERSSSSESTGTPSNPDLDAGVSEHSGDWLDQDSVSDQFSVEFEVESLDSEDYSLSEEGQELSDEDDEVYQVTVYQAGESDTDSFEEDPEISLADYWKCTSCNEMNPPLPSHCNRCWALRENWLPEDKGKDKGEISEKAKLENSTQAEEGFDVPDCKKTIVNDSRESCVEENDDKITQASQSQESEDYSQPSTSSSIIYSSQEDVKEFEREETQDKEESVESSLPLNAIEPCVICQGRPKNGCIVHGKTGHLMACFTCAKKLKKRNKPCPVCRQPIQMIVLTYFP

B1: GST-M11 (modified three-helix bundle protein M11, an a3D variant, fused to GST) (designed binder)
chain: MGSWAEFSQRLFAIYWRLLALGGSEAELAAFEKEIAAFESELQAYKGKGNPEVEALRKEAAAIRDELQAYRHN
notes: Tested as a GST fusion in ELISA and detected with an HRP-conjugated anti-GST antibody; GST is placed at the N-terminus from the name GST-M11 and the pGEX vector; not shown: GST carrier (from the GST cds of pGEX-4T3, GE Healthcare) and the vector junction between GST and M11
- binding result: binds

B2: GST-M25 (modified three-helix bundle protein M25, an a3D variant, fused to GST) (designed binder)
chain: MGSWFEFAWRLLEIKTRLQALGGSEAELAAFEKEIAAFESELQAYKGKGNPEVEALRFEAYWIRLELQAYRHN
notes: Tested as a GST fusion in ELISA and detected with an HRP-conjugated anti-GST antibody; GST is placed at the N-terminus from the name GST-M25 and the pGEX vector; not shown: GST carrier (from the GST cds of pGEX-4T3, GE Healthcare) and the vector junction between GST and M25
- binding result: binds
